Results as given in US20170362323A1 (Kyowa Kirin, published 2017).
One block for each binder: values may come before it.

Biological target: T1, CD20 on CD20-positive human lymphoma cell lines Raji and ST-486 (human, UniProt P11836 1-297)
T1 construct: whole, on cells
T1 sequence (looked up): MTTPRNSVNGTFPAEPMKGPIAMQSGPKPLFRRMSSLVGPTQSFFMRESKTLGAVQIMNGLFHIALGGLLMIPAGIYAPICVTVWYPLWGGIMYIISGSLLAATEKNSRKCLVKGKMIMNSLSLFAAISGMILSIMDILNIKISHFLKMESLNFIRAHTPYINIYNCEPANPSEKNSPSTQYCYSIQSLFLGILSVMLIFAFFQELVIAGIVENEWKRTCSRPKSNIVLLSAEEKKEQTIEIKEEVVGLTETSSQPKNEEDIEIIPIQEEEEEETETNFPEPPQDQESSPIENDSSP
Assay: flow cytometry competition on Raji cells, competitor GA101_Alx
Description: CD20-positive human lymphoma cell line Raji (JCRB9012) and HER2-positive human breast cancer cell line SK-BR-3 (ATCC: HTB-30) were used to perform flow cytometry.
Further, hIgG1_Alx was used as a negative control. After washing with FACS buffer, a flow cytometer Cytomics FC 500 MPL (Beckman Coulter) was used for measurement.

- binding result: binds
B1: anti-CD20 IgG1 defucosylated antibody GA101/IgG1 DF (antibody, V domains shown)
VH: QVQLVQSGAEVKKPGSSVKVSCKASGYAFSYSWMNWVRQAPGQGLEWMGRIFPGDGDTDYNGKFKGRVTITADKSTSTAYMELSSLRSEDTAVYYCARNVFDGYWLVYWGQGTLVTVSS
VL: DIVMTQTPLSLPVTPGEPASISCRSSKSLLHSNGITYLYWYLQKPGQSPQLLIYQMSNLVSGVPDRFSGSGSGTDFTLKISRVEAEDVGVYYCAQNLELPYTFGGGTKVEIK

- binding result: binds
B2: anti-CD20 IgG1 type defucosylated monovalent antibody GA101/mvG1-2 DF (antibody, V domains shown)
VH: B1 VH
VL: DIVMTQTPLSLPVTPGEPASISCRSSKSLLHSNGITYLYWYLQKPGQSPQLLIYQMSNLVSGVPDRFSGSGSGTDFTLKISRVEAEDVGVYYCAQNLELPYTFGGGTKVEIKR
notes: Same chains as GA101/mvG1-2 F, made in CHO/FUT8KO (no core fucose)

- binding result: binds
B3: anti-CD20 IgG1 type monovalent antibody GA101/mvG1-2 F (antibody, V domains shown)
VH: B1 VH
VL: B2 VL
notes: Heterodimer of VH-CH and VL-CL-Fc
